Reference: patent US20190144498A1 (Johns Hopkins, published 2019)
* marks the point of attachment. B(OH)2 = OB(O)*

Target: T1, endogenous GlpG in living E. coli cells (Escherichia coli, UniProt P09391 1-276)
T1 sequence (looked up): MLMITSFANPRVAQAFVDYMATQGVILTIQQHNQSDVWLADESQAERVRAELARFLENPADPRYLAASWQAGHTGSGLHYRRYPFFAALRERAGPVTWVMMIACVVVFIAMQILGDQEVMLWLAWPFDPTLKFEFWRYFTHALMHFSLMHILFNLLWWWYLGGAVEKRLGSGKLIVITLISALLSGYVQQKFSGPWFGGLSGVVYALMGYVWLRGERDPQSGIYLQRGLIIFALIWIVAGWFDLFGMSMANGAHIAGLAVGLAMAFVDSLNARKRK
Test: cell-based or functional assay

B1: Ac-VRMA-B(OH)2 (peptide)
peptide: Ac-VRMA-{B(OH)2}
SMILES: CSCC[C@H](NC(=O)[C@H](CCCNC(=N)N)NC(=O)[C@@H](NC(C)=O)C(C)C)C(=O)N[C@@H](C)C(=O)B(O)O
- EC50 of inhibition of endogenous GlpG activity (TatA-Flag cleavage) in living E. coli cells: < 1 µM
- fold increase in potency of GlpG inhibition relative to the aldehyde (Ac-VRMA-CHO): > 100 fold
- fold increase in potency of GlpG inhibition relative to the chloromethylketone (Ac-VRMA-CMK): > 400 fold
